± gives the uncertainty stated by the source.

The data set in a line: amyloid nucleation score (Sup35N fusion, yeast selection) (log enrichment); library NNK2; higher = more nucleation; inactive = no reads after selection. The method in brief: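 The nucleation score is the DiMSum log enrichment of output over input reads, centred on the mode score of non-aggregating sequences. Only sequences with 100 or more input reads were scored, using Illumina sequencing of input and output plasmid inserts. Psi-negative yeast expressing Sup35N fused to peptides of 20 random codons were induced 24 hours with 100 μM copper sulfate and grown 7 days at 30°C on medium lacking adenine and uracil.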
GRGYAAVLNWRLFDKDRGRI showed an amyloid nucleation score of 0.035 ± 0.28. Next, GRKCVTYSCPF: 0.185 ± 0.39; GRKTDFHFDVRFAWGDNGFS: “inactive”. In the case of GRLLQGWLIAEHVITVHFPM it was “inactive”; in that of GRNLMLSGVCGYKDVFLQAR, 0.359 ± 0.34; in that of GRSFILTRLRFIFPVYTVC, “inactive”. Regarding GRSGRNNVKAW, the amyloid nucleation score result was “inactive”. In the case of GRTYGFSSRVVMRRGSCDFG it was 0.913 ± 0.52; in that of GRWKDRFCTVGMLYSRG, -0.316 ± 0.45; in that of GSAMF, “inactive”.

The substance GSCRDLDLLLERHWRVVSNL came in with an amyloid nucleation score of 0.903 ± 0.57. Substance GSFSEYVLWT had an amyloid nucleation score of 0.863 ± 0.41. Next, GSGFLFFSVF: 0.353 ± 0.25. Next, GSKDFLV: -0.047 ± 1.1; GSLNTLSIFDDE: -0.684 ± 0.64; GSNETPHLDALSPSALRMGH: 0.103 ± 0.63.

In the case of GSNHRSVVFIFLMLMGFMES, the amyloid nucleation score is -0.205 ± 0.76.

On to GSNTSDHDNLD, for which the amyloid nucleation score was -0.238 ± 0.5. In the case of GSPGIETGIAAEEWNGGW it was 0.865 ± 0.5; in that of GSPSRRGTVYRVWRVRWCNG, 0.307 ± 0.64; in that of GSQVCILLAKGLWMVVFRIE, -0.795 ± 0.55. The substance GSSNASVATGFVHIKEVKGG had an amyloid nucleation score of 0.461 ± 0.8. The substance GSVFLRGTYWVLKDVCGWKE gave an amyloid nucleation score of 0.391 ± 0.56. In the case of GSVTVCIMSRR it was -0.729 ± 0.64; in that of GSYCCLVKFMKFFSSLGHQF, -1.29 ± 1; in that of GSYFGHNIHLGAVWPIIGYP, 0.117 ± 0.3. As for GTAPSDQRTSSCR, the amyloid nucleation score was found to be 0.989 ± 0.23. In the case of GTLMTCVGG it was “inactive”; in that of GTLWRFKESTMGLTGITAGT, 0.987 ± 0.4; in that of GTRNVLIHAK, -1.26 ± 1.1. In the case of GTRYILVKGTMGYDLCYFLG, the amyloid nucleation score stood at 2.69 ± 0.13. In turn, GTTDTCSAV yielded an amyloid nucleation score of 3.2 ± 0.093. Next, GTTWLTVLALVALSEISCRM: 0.384 ± 0.28; GTVGGVGMFVLLVTRSKVFV: 1.3 ± 0.29; GTVGVGMS: 1.11 ± 0.66. Next, GVCLSGACAGISGGADYSGR: 0.332 ± 0.22; GVDDARTTKAGNWYSVRKGQ: 1.64 ± 0.41. GVDKWLDHVCFVASYLSVKV showed an amyloid nucleation score of 1.22 ± 0.51. For the substance GVFALSPRKHLRCDVVAWGV, the amyloid nucleation score came out at 0.884 ± 0.55. On to GVIWVCIRCDHGGTAMRLLW, for which the amyloid nucleation score was 1.25 ± 0.45.

GVIWWPVTLCFWLCAKYIGL gave an amyloid nucleation score of -0.552 ± 1.1. For GVKST, the amyloid nucleation score turned out to be 0.422 ± 0.74. In the case of GVLDRFPDESNILGVSFSCL it was -0.575 ± 0.26. As for GVLYLFTVTVMDKKFTM, the amyloid nucleation score stood at 3.5 ± 0.077. The substance GVMSPHVTTFNILCVNNVLC yielded an amyloid nucleation score of 8.72 ± 0.07. Substance GVNILTLWHWIYFNTTVQNN returned an amyloid nucleation score of -1.19 ± 0.38. On to GVPRMTSVDSYRLLLFSASR, for which the amyloid nucleation score was 0.19 ± 0.25. In the case of GVRMQLFGTLMSSAHQVRVG it was 0.69 ± 0.17; in that of GVSLFYNWPPSAFKVRYE, -0.611 ± 1. In the case of GVSVSVYHGWLVLDRMFHNS it was 4.25 ± 0.12; in that of GVWYFANFFVVMRAVGCDVG, 0.484 ± 0.36. In the case of GVYKVGMVPWFIQFSDVGGR it was 5.73 ± 0.068; in that of GVYLGSPSYVDLSVALFSIV, 0.073 ± 0.29; in that of GWCSYTP, 0.832 ± 0.67. GWIVSLFVV gave an amyloid nucleation score of 0.769 ± 0.46. Next, GWVLTSCGANGWRK: -0.371 ± 0.63; GYDGRFIASRSVYFKARIGG: -0.056 ± 0.29.
